Measured values: US20230287145A1 (Hoffmann-La Roche, published 2023)

Experiments:
[1] = molecular target: T1, Human CD3ε stalk-Fc(knob)-Avi/CD3δ stalk-Fc(hole) (human); experiment: SPR, biotinylated human CD3ε/δ on SA chip, monovalent IgG; response normalised to anti-huIgG capture and referenced to the unstressed sample; after 2 weeks at pH 7.4/37 °C
T1 construct: Heterodimeric Fc fusion; also called human CD3ε/δ; Human CD3 epsilon stalk-Fc(knob)-Avi
Procedure: (§1) All SPR experiments were performed on a Biacore T200 instrument (GE Healthcare) at 25° C. with HBS-P+ (10 mM HEPES, 150 mM NaCl pH 7.4, 0.05% Surfactant P20) as running and dilution buffer. Biotinylated human CD3ε/δ (see Example 3, SEQ ID NOs 41 and 42) as well as biotinylated anti-huIgG (Capture Select, Thermo Scientific, #7103262100) were immobilized on a Series S Sensor Chip SA (GE Healthcare, #29104992), resulting in surface densities of at least 1000 resonance units (RU). Anti-CD3 antibodies with a concentration of 2 μg/ml were injected for 30 s at a flow rate of 5 μl/min, and dissociation was monitored for 120 s. The surface was regenerated by injecting 10 mM glycine pH 1.5 for 60 s. Bulk refractive index differences were corrected by subtracting blank injections and by subtracting the response obtained from a blank control flow cell. For evaluation, the binding response 5 seconds after injection end was taken. To normalize the binding signal, the CD3 binding was divided by the anti-huIgG response (the signal (RU) obtained upon capture of the CD3 antibody on the immobilized anti-huIgG antibody). The relative binding activity was calculated by referencing each temperature stressed sample to the corresponding, non-stressed sample.

[2] = molecular target: T1, Human CD3ε stalk-Fc(knob)-Avi/CD3δ …; experiment: SPR, biotinylated human CD3ε/δ on SA chip, monovalent IgG; response normalised to anti-huIgG capture and referenced to the unstressed sample; after 2 weeks at pH 6.0/40 °C
Procedure: as §1

[3] = molecular target: T1, Human CD3ε stalk-Fc(knob)-Avi/CD3δ …; experiment: SPR, Biacore T200, 25 °C; monovalent IgG captured by anti-PG antibody on C1 chip, CD3ε/δ-Fc as analyte; 1:1 Langmuir fit; triplicates; footnote: values may not be fully reliable, bad fit quality
Procedure: (§2) Kinetic constants were derived using the Biacore T200 Evaluation Software (GE Healthcare Life Sciences), to fit rate equations for 1:1 Langmuir binding by numerical integration. The half-life (t_{1/2}) of the interaction was calculated using the formula t_{1/2}=ln 2/koff.
(§3) To analyze the interaction to CD3, IgG molecules were captured for 240 s at 50 nM with a flow rate of 5 μl/min. Human and cynomolgus CD3ε stalk-Fc(knob)-Avi/CD3δ-stalk-Fc(hole) were passed at a concentration of 0.061-250 nM with a flow rate of 30 μl/min through the flow cells for 300 s. The dissociation was monitored for 800 s.

[4] = molecular target: T2, Cynomolgus CD3ε stalk-Fc(knob)-Avi/CD3δ stalk-Fc(hole) (cynomolgus); experiment: as above
T2 construct: Heterodimeric Fc fusion; also called cynomolgus CD3ε/δ
T2 sequence (chain, as listed by the source mutant limits assumed, chain 1 of 2): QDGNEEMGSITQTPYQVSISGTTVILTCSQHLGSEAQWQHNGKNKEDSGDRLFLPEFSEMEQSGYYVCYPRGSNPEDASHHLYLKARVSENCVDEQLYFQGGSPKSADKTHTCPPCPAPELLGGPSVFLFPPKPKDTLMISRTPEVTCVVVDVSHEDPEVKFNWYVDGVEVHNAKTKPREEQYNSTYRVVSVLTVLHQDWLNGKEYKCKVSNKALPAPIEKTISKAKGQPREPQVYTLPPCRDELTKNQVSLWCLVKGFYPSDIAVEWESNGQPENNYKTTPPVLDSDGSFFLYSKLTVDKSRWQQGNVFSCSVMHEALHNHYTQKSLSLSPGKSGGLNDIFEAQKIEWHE
T2 sequence (chain, as listed by the source mutant limits assumed, chain 2 of 2): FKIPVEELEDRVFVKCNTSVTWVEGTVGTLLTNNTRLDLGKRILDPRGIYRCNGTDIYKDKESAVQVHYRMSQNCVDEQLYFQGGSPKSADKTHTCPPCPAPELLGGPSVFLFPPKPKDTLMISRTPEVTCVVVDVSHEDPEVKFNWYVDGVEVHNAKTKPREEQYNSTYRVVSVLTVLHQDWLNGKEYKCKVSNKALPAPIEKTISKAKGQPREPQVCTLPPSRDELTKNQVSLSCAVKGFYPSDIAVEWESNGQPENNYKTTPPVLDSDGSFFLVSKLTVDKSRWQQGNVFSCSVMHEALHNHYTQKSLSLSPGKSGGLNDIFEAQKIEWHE
Procedure: as §2, §3

[5] = molecular target: T1, Human CD3ε stalk-Fc(knob)-Avi/CD3δ …; experiment: SPR, Biacore T200, 25 °C; monovalent IgG captured by anti-PG antibody on C1 chip, CD3ε/δ-Fc as analyte; triplicates; footnote: values may not be fully reliable, bad fit quality
Procedure: as §2, §3

[6] = molecular target: T2, Cynomolgus CD3ε stalk-Fc(knob)-Avi/CD3δ …; experiment: as above
Procedure: as §2, §3

binding activity [%] [1]: 98% | binding activity [%] [2]: 101% | Kd [3]: 1.36 nM | koff [3]: 0.00852 s⁻¹ | kon [3]: 6.28e+06 M⁻¹ s⁻¹ | Kd [4]: 0.439 nM | koff [4]: 0.00809 s⁻¹ | kon [4]: 1.85e+07 M⁻¹ s⁻¹ | t1/2 [5]: 1.36 min | t1/2 [6]: 1.43 min
B1: Anti-CD3 antibody clone P004.042 in monovalent human IgG1 format (antibody, V domains shown)
VH: EVQLLESGGGLVQPGGSLRLSCAASGFQFDNYAMNWVRQAPGKGLEWVSRIRTKYNEYATYYADSVKGRFTISRDDSKNTLYLQMNSLRAEDTAVYYCVRASNFPQSYVSYFGYWGQGTLVTVSS
VL: QAVVTQEPSLTVSPGGTVTLTCGSSTGAVTTSNYANWVQEKPGQAFRGLIGGTNKRAPGTPARFSGSLLGGKAALTLSGAQPEDEAEYYCALWYSNLWVFGGGTKLTVL
notes: Monovalent human IgG1 with crossed VH and VL domains; knob-into-hole; P329G L234A L235A; also called P004.042 (monovalent IgG)
